Measured values reported in patent publication US20190315845A1 (ANNEXON, published 2019).
Read-outs that look alike come from different tables or passages of the source.

How the values were obtained:
human C1q [1] = molecular target: T1, human C1q (human, UniProt P02745 23-245; P02746 28-253; P02747 29-245); assay: competition ELISA, plate-coated human C1q; competitor biotinylated mouse M1 (0.02 µg/ml); IC50 normalised to chimeric M1
T1 construct: Purified human C1q protein (plate-coated in ELISA, ligand or analyte in SPR, in human serum in CH50); also called hC1q; complement factor C1q
Experimental: (§1) The binding of humanized M1 variants to human C1q was analyzed by competition ELISA. A three-fold dilution series of test antibody (5 μg/ml to 0.002 μg/ml) was premixed with a constant concentration of biotinylated mouse M1 antibody (0.02 μg/ml, final concentration) before incubating for 1 hour at 37° C. with shaking on plates pre-coated with human C1q at 1.0 μg/ml. The binding of mouse M1 antibody was detected with streptavidin-peroxidase conjugate (Sigma-Aldrich cat. no. 55512) and TMB (3,3′,5,5′-tetramethylbenzidine) substrate (Thermo Scientific cat. no. 34029). The reaction was stopped with 1M HCl, absorbance read at 450 nm on a Dynex Technologies MRX TC II plate reader and the binding curves plotted.
The binding curves were used to calculate IC₅₀ values (concentration of test antibody that inhibits labelled competitor binding by 50%) for each antibody normalized to the IC₅₀ of chimeric M1 and antibody yields from NS0 transfectants were also compared (Table 1).

human C1q [2] = molecular target: T1, human C1q; assay: competition ELISA on plate-bound human C1q against biotinylated mouse M1 antibody (0.02 µg/ml); bound biotin-M1 read as OD450
From the text: (§2) FIG. 4A, FIG. 4B, FIG. 4C, and FIG. 4D depicts competition ELISA assays for human C1q. A dilution series of purified humanized anti-C1q antibodies were competed against a fixed concentration of biotinylated monoclonal antibody M1 for binding to human C1q. Bound biotinylated M1 antibody was detected using streptavidin-peroxidase conjugate and TMB substrate. FIG. 4A depicts the results with the humanized antibodies VH1/Vκ1, VH1/Vκ2, and VH1/Vκ3. FIG. 4B depicts the results with the humanized antibodies VH1/Vκ4, VH2/Vκ1, VH2/Vκ2, VH2/Vκ3, and VH2/Vκ4. FIG. 4C depicts the results with the humanized antibodies VH3/Vκ1, VH3/Vκ2, VH3/Vκ3, and VH3/Vκ4. FIG. 4D depicts the results with the humanized antibodies VH4/Vκ1, VH4/Vκ2, […], and VH4/Vκ4.
as §1

human C1q [3] = molecular target: T1, human C1q; assay: as above; remark: listed apart in the source
From the text: as §2, §1

human C1q [4] = molecular target: T1, human C1q; assay: as above; remark: listed apart in the source
From the text: as §2, §1

human C1q [5] = molecular target: T1, human C1q; assay: as above; remark: listed apart in the source
From the text: as §2, §1

T1 sequence (P02745 23-245 limits assumed, chain 1 of 3): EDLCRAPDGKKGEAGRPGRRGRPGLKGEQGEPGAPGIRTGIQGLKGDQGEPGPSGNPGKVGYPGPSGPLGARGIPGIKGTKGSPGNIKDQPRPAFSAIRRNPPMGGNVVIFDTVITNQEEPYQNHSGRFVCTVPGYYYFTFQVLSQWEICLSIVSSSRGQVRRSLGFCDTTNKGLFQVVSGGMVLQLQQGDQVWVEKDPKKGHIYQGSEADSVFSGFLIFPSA
T1 sequence (P02746 28-253 limits assumed, chain 2 of 3): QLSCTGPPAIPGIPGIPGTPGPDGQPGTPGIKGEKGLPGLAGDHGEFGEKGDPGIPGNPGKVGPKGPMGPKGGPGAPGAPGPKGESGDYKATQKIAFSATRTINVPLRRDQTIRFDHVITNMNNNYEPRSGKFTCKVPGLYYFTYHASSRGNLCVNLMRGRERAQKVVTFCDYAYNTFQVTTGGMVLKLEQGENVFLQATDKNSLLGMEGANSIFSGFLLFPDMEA
T1 sequence (P02747 29-245 limits assumed, chain 3 of 3): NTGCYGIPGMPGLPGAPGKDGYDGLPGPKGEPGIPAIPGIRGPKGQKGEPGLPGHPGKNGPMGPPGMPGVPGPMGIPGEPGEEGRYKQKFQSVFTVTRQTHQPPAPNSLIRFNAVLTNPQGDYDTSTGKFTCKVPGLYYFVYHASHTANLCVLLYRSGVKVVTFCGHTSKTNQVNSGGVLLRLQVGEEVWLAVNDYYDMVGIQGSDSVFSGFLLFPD

| Binder | Relative IC50 (human C1q [1]) | IC50 (read off the curve) (human C1q [2]) [µg/mL] | IC50 (read off the curve) (human C1q [3]) [µg/mL] | IC50 (read off the curve) (human C1q [4]) [µg/mL] | IC50 (read off the curve) (human C1q [5]) [µg/mL] |
| --- | --- | --- | --- | --- | --- |
| humanized anti-C1q antibody VH2/Vκ2 (antibody, human IgG4, Full-length human IgG4 (S241P L248E) / human kappa, expressed in NS0, Protein A purified; not shown: human kappa light chain constant region) heavy: not shown light: DVQITQSPSSLSASLGERATINCRASKSINKYLAWYQQKPGKANKLLIYSGSTLQSGIPARFSGSGSGTDFTLTISSLEPEDFAMYYCQQHNEYPLTFGQGTKLEIK | 1.12 ratio to chimeric M1 | ~0.3 | – | – | – |
| humanized anti-C1q antibody VH3/Vκ2 (antibody, human IgG4, Full-length human IgG4 (S241P L248E) / human kappa, expressed in NS0, Protein A purified; not shown: human kappa light chain constant region) heavy: not shown light: DVQITQSPSSLSASLGERATINCRASKSINKYLAWYQQKPGKANKLLIYSGSTLQSGIPARFSGSGSGTDFTLTISSLEPEDFAMYYCQQHNEYPLTFGQGTKLEIK | 0.82 ratio to chimeric M1 | – | ~0.3 | – | – |
| humanized anti-C1q antibody VH2/Vκ1 (antibody, human IgG4, Full-length human IgG4 (S241P L248E) / human kappa, expressed in NS0, Protein A purified; not shown: human kappa light chain constant region) heavy: not shown light: DVQITQSPSYLAASLGERATINCRASKSINKYLAWYQQKPGKTNKLLIYSGSTLQSGIPARFSGSGSGTDFTLTISSLEPEDFAMYYCQQHNEYPLTFGQGTKLEIK | 1.15 ratio to chimeric M1 | ~0.3 | – | – | – |
| humanized anti-C1q antibody VH4/Vκ1 (antibody, human IgG4, Full-length human IgG4 (S241P L248E) / human kappa, expressed in NS0, Protein A purified; not shown: human kappa light chain constant region) heavy: not shown light: DVQITQSPSYLAASLGERATINCRASKSINKYLAWYQQKPGKTNKLLIYSGSTLQSGIPARFSGSGSGTDFTLTISSLEPEDFAMYYCQQHNEYPLTFGQGTKLEIK | 1.03 ratio to chimeric M1 | – | – | ~0.3 | – |
| humanized anti-C1q antibody VH2/Vκ3 (antibody, human IgG4, Full-length human IgG4 (S241P L248E) / human kappa, expressed in NS0, Protein A purified; not shown: human kappa light chain constant region) heavy: not shown light: DVQITQSPSSLSASLGERATINCRASKSINKYLAWYQQKPGKAPKLLIYSGSTLQSGIPARFSGSGSGTDFTLTISSLEPEDFAMYYCQQHNEYPLTFGQGTKLEIK | 0.75 ratio to chimeric M1 | ~0.2 | – | – | – |
| humanized anti-C1q antibody VH4/Vκ2 (antibody, human IgG4, Full-length human IgG4 (S241P L248E) / human kappa, expressed in NS0, Protein A purified; not shown: human kappa light chain constant region) heavy: not shown light: DVQITQSPSSLSASLGERATINCRASKSINKYLAWYQQKPGKANKLLIYSGSTLQSGIPARFSGSGSGTDFTLTISSLEPEDFAMYYCQQHNEYPLTFGQGTKLEIK | 0.84 ratio to chimeric M1 | – | – | ~0.2 | – |
| humanized anti-C1q antibody VH1/Vκ2 (antibody, human IgG4, Full-length human IgG4 (S241P L248E) / human kappa, expressed in NS0, Protein A purified; not shown: human kappa light chain constant region) heavy: not shown light: DVQITQSPSSLSASLGERATINCRASKSINKYLAWYQQKPGKANKLLIYSGSTLQSGIPARFSGSGSGTDFTLTISSLEPEDFAMYYCQQHNEYPLTFGQGTKLEIK | 0.84 ratio to chimeric M1 | – | – | – | ~0.3 |
| humanized anti-C1q antibody VH2/Vκ4 (antibody, human IgG4, Full-length human IgG4 (S241P L248E) / human kappa, expressed in NS0, Protein A purified; not shown: human kappa light chain constant region) heavy: not shown light: DIQLTQSPSSLSASLGERATINCRASKSINKYLAWYQQKPGKAPKLLIYSGSTLQSGIPARFSGSGSGTDFTLTISSLEPEDFAMYYCQQHNEYPLTFGQGTKLEIK | 0.72 ratio to chimeric M1 | ~0.2 | – | – | – |
| humanized anti-C1q antibody VH1/Vκ4 (antibody, human IgG4, Full-length human IgG4 (S241P L248E) / human kappa, expressed in NS0, Protein A purified; not shown: human kappa light chain constant region) heavy: not shown light: DIQLTQSPSSLSASLGERATINCRASKSINKYLAWYQQKPGKAPKLLIYSGSTLQSGIPARFSGSGSGTDFTLTISSLEPEDFAMYYCQQHNEYPLTFGQGTKLEIK | 0.8 ratio to chimeric M1 | ~0.2 | – | – | – |
| humanized anti-C1q antibody VH1/Vκ3 (antibody, human IgG4, Full-length human IgG4 (S241P L248E) / human kappa, expressed in NS0, Protein A purified; not shown: human kappa light chain constant region) heavy: not shown light: DVQITQSPSSLSASLGERATINCRASKSINKYLAWYQQKPGKAPKLLIYSGSTLQSGIPARFSGSGSGTDFTLTISSLEPEDFAMYYCQQHNEYPLTFGQGTKLEIK | 0.91 ratio to chimeric M1 | – | – | – | ~0.3 |
| humanized anti-C1q antibody VH4/Vκ4 (antibody, human IgG4, Full-length human IgG4 (S241P L248E) / human kappa, expressed in NS0, Protein A purified; not shown: human kappa light chain constant region) heavy: not shown light: DIQLTQSPSSLSASLGERATINCRASKSINKYLAWYQQKPGKAPKLLIYSGSTLQSGIPARFSGSGSGTDFTLTISSLEPEDFAMYYCQQHNEYPLTFGQGTKLEIK | 0.92 ratio to chimeric M1 | – | – | ~0.2 | – |
| humanized anti-C1q antibody VH3/Vκ1 (antibody, human IgG4, Full-length human IgG4 (S241P L248E) / human kappa, expressed in NS0, Protein A purified; not shown: human kappa light chain constant region) heavy: not shown light: DVQITQSPSYLAASLGERATINCRASKSINKYLAWYQQKPGKTNKLLIYSGSTLQSGIPARFSGSGSGTDFTLTISSLEPEDFAMYYCQQHNEYPLTFGQGTKLEIK | 0.65 ratio to chimeric M1 | – | ~0.2 | – | – |
